Measurements: article PMC11154737

Biological target: Streptolysin O (SLO), wild type, full length (Streptococcus pyogenes) (UniProt P0DF96)
Assay: ELISA

UniProt P0DF96, sequence (P0DF96 34-571): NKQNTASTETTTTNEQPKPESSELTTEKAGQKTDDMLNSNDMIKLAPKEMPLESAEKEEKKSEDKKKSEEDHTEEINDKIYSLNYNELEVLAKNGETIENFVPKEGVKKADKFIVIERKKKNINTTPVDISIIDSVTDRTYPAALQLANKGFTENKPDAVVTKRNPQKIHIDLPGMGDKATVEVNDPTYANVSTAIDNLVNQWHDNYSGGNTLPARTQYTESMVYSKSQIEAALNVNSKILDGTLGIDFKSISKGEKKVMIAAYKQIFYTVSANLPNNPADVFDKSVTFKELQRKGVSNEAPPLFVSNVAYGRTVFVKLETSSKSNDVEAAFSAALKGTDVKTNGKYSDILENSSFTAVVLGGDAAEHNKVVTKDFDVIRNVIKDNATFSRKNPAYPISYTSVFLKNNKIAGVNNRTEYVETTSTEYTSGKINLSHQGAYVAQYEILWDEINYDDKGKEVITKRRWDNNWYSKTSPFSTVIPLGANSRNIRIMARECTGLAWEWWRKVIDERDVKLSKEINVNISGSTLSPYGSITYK

## murine neutralizing monoclonal antibody (nAb) against Streptolysin O, Abcam AB23501
  Kd: 1.12 nM
